Assays:
[1] = molecular target: Human PD-1 (soluble analyte, Octet RED 96) (human) (UniProt Q15116); test: Octet RED 96
[2] = molecular target: cynomolgus monkey PD-1 (soluble analyte, Octet RED 96) (UniProt B0LAJ3); test: Octet RED 96
[3] = molecular target: human PD1 receptor on Jurkat-PD1-NFAT-Luc2 reporter cells (human) (UniProt Q15116); test: cell-based or functional assay
FcRn = test: Octet RED 96
FcgRIIIaV = test: Octet RED 96
FcgRIIaH = test: Octet RED 96
FcgRIIb = test: Octet RED 96
FcgRIa = test: Octet RED 96

Sequence of human PD1 receptor on Jurkat-PD1-NFAT-Luc2 reporter cells (human) (Q15116 25-288): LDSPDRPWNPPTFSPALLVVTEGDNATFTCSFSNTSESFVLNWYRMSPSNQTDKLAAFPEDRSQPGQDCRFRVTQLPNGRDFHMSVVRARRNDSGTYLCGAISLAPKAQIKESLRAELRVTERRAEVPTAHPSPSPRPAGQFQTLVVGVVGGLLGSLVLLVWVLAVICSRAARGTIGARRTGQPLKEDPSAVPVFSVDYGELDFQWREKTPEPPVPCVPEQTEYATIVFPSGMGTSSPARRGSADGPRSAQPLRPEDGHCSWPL
Sequence of Human PD-1 (soluble analyte, Octet RED 96) (human) (Q15116 25-167): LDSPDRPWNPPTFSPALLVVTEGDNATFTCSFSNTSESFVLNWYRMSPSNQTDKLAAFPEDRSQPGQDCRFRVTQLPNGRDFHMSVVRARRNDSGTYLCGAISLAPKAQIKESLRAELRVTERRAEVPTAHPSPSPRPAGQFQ

Row | Kd [1] [nM] | Kd [2] [pM] | effective dose (ED50), reactivation of NFAT-luciferase luminescence in Jurkat-PD1-NFAT reporter line [3] | Kd (FcRn) [nM] | Kd (FcgRIIIaV) [µM] | Kd (FcgRIIaH) [nM] | Kd (FcgRIIb) [nM] | Kd (FcgRIa) [nM] | Substance
1 | 0.186 | < 1 |  |  |  |  |  |  | BCD-100
2 |  |  | 115 |  |  |  |  |  | BCD-100 (antibody)
3 |  |  |  | 9.52 | 4.2 | 1600 | 280 | 64 | Nivolumab IgG4
4 |  |  |  | 5.1 | 5 | 1300 | 2300 | 50 | Pembrolizumab IgG4
